Test results taken from US20180194862A1 (AbbVie / Abbott, published 2018).

T1: mouse 4-1BB on HEK293 cells (mouse, UniProt P20334 24-256)
T1 construct: whole, on cells
T1 sequence (looked up): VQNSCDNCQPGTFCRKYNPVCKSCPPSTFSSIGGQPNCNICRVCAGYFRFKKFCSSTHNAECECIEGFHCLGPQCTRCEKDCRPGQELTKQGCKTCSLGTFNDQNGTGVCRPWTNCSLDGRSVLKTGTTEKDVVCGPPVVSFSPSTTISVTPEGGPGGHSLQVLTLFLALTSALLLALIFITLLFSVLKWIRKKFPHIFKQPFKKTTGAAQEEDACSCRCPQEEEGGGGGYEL

T2: mouse 4-1BB (mouse, UniProt P20334 24-187)
T2 construct: also called mu4-1BB; murine 4-1BB
T2 sequence (looked up): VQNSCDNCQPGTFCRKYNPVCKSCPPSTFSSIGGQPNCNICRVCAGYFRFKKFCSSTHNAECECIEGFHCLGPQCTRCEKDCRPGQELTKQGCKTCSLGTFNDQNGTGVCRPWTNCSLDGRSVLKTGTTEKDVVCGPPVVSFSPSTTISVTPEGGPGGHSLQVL


How the values were obtained:
[1] = molecular target: T3, human 4-1BB (human, UniProt Q07011 24-186); assay: SPR (Biacore)
T3 construct: SPR (Biacore) analyte; also called hu4-1BB

[2] = molecular target: T1, mouse 4-1BB on HEK293 cells; assay: FACS, HEK293 mouse 4-1BB
Protocol: To determine species specificity and relative binding affinities of the test antibodies, cell lines were generated to exogenously express 4-1BB on the membrane. HEK293 cells were transfected with a plasmid expressing the human, cynomolgus, or mouse 4-1BB proteins. Stable, high expressing populations were sorted on the MoFlo sorter (Beckman) and maintained in DMEM, 10% fetal bovine serum, containing 500 μg/mL G418. For the assay, cells were dissociated with trypsin, resuspended at 5×10⁶ cells/mL and transferred to the 500 μL polypropylene plate (Nunc) at 50 μL/well (250,000 cells/well). […] Cells were washed twice with 250 μL/PBS (Hyclone) per well. PE-labelled detection antibodies were added at 1:250 dilution of stock, 50 μL/well, and incubated for 20 minutes at room temperature. The following detection antibodies were used: Goat anti-Rat IgG-PE (Southern Biotech), Goat anti-Mouse IgG-PE (Southern Biotech) or Goat anti-Human IgG-PE (Southern Biotech). Cells were washed once and fixed with PBS containing 1% Formaldehyde. Plate was analyzed for fluorescence on the FACSCalibur (Becton Dickinson).

[3] = molecular target: human CD40 on cells (HEK293 stable transfectants, HEK-Blue CD40 cells, human B cells, monocytic cells, … (human, UniProt P25942 21-277)); assay: cell-based or functional assay
Chain of human CD40 on cells (HEK293 stable transfectants, HEK-Blue CD40 cells, human B cells, monocytic cells, … (P25942 21-277 limits assumed): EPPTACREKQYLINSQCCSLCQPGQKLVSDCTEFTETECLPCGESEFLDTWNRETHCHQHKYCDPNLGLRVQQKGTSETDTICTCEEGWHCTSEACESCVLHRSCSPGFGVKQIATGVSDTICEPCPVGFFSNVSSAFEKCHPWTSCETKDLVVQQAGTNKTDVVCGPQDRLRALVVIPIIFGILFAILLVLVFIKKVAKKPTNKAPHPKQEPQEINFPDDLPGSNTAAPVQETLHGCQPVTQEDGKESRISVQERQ

[4] = molecular target: T3, human 4-1BB; assay: SPR
[5] = molecular target: T2, mouse 4-1BB; assay: SPR

Row | Kd [1] [nM] | EC50 [2] [nM] | Binder | other results
1 | 0.3 | – | TABBY5-mIgG2b (antibody, V domains shown, mouse IgG2b) VH: EVQLQQSGAELVRPGASVKLSCTASGFNIKDYYMHWVKQRPEQGLEWIGRIDPEDGDTEYVPKFQGKATMTADTSSNTAYLQLSSLTSEDTAVYYCTPYSNYVYWYFDVWGTGTTVTVSS VL: not shown | –
2 | 1.9 | – | TABBY6-mIgG1 (antibody, V domains shown, mouse IgG1) VH: EVQLQQSGAELVRPGASVKLSCTASGFNIKDYYMHWVKQRPEQGLEWIGRIDPEDGDTEYAPKFQGKATMTADTSSNTAYLQLSTLTSEDTAVYYCTPYSNYVYWYFDVWGTGTTVTVSS VL: not shown | –
3 | – | 1.1 | Hu106mPSMA-3 (bispecific antibody, contains T252M) EVQLVQSGAEVKKPGSSVKVSCKASGYTFTSYYIYWVRQAPGQGLEWIGNIWPGNGGTFYGEKFMGRATFTADTSTSTAYMELSSLRSEDTAVYYCARRPDYSGDDYFDYWGQGTLVTVSSGGGGSGGGGSGGGGSGGGGSGGGGSGGGGSNVMLTQPHSVSESPGKTVTISCKLNSGNIGSYYVHWYQQRPGSSPTTMIYRDDKRPDGVPDRFSGSIDSSSNSASLTISGLKTEDEADYYCHSYDSTITPVFGGGTKLTVLGQVPRDSGCKPCICTVPEVSSVFIFPPKPKDVLMITLTPKVTCVVVDISKDDPEVQFSWFVDDVEVHTAQTQPREEQFNSTFRSVSELPIMHQDWLNGKEFKCRVNSAAFPAPIEKTISKTKGRPKAPQVYTIPPPKEQMAKDKVSLTCMITDFFPEDITVEWQWNGQPAENYKNTQPIMDTDGSYFVYSKLNVQKSNWEAGNTFTCSVLHEGLHNHHTEKSLSHSPGKGGGGSGGGSGGGSGGGGSEVKLVESEGGLVQPGSSMKLSCTASGFTFSDYYMAWVRQVPEKGLEWVANINYDGTTTYYLDSLKSRFIISRDNSKNILYLQMSSLKSEDTATYYCARVLDGYYGYFDYWGQGTTLSVSSGGGGSGGGGSGGGGSGGGGSGGGGSGGGGSQIVLTQSPAIMSASPGEKVTISCSASSSVSYMYWYQQKPGSSPKPWIYRTYNLASGVPARFSGSGSGTSYSLTISSMEAEDAATYYCQQSHTYPPTFGGGTKLEIKR | –
4 | – | 1 | Hu106mPSMA-4 (bispecific antibody, contains T252M and N297A) EVQLVQSGAEVKKPGSSVKVSCKASGYTFTSYYIYWVRQAPGQGLEWIGNIWPGNGGTFYGEKFMGRATFTADTSTSTAYMELSSLRSEDTAVYYCARRPDYSGDDYFDYWGQGTLVTVSSGGGGSGGGGSGGGGSGGGGSGGGGSGGGGSNVMLTQPHSVSESPGKTVTISCKLNSGNIGSYYVHWYQQRPGSSPTTMIYRDDKRPDGVPDRFSGSIDSSSNSASLTISGLKTEDEADYYCHSYDSTITPVFGGGTKLTVLGQVPRDSGCKPCICTVPEVSSVFIFPPKPKDVLMITLTPKVTCVVVDISKDDPEVQFSWFVDDVEVHTAQTQPREEQFASTFRSVSELPIMHQDWLNGKEFKCRVNSAAFPAPIEKTISKTKGRPKAPQVYTIPPPKEQMAKDKVSLTCMITDFFPEDITVEWQWNGQPAENYKNTQPIMDTDGSYFVYSKLNVQKSNWEAGNTFTCSVLHEGLHNHHTEKSLSHSPGKGGGGSGGGSGGGSGGGGSEVKLVESEGGLVQPGSSMKLSCTASGFTFSDYYMAWVRQVPEKGLEWVANINYDGTTTYYLDSLKSRFIISRDNSKNILYLQMSSLKSEDTATYYCARVLDGYYGYFDYWGQGTTLSVSSGGGGSGGGGSGGGGSGGGGSGGGGSGGGGSQIVLTQSPAIMSASPGEKVTISCSASSSVSYMYWYQQKPGSSPKPWIYRTYNLASGVPARFSGSGSGTSYSLTISSMEAEDAATYYCQQSHTYPPTFGGGTKLEIKR | –
5 | – | – | CF4 (bispecific antibody, human IgG1, lambda) heavy: not shown light: SYELTQPPSVSVSPGQTASITCSGDKLGDKYASWYQQKPGQSPVLVIYQDNRRPSGIPERFSGSNSGNTATLTISGTQAMDEADYYCQAWDSDTYVFGTGTKVTVLGQPKAAPSVTLFPPSSEELQANKATLVCLISDFYPGAVTVAWKADSSPVKAGVETTTPSKQSNNKYAASSYLSLTPEQWKSHRSYSCQVTHEGSTVEKTVAPTECS | Max. IL-12p70, dendritic cells with cell-surface mesothelin [3]: 50 pg/mL
6 | – | – | CF5 (bispecific antibody, human IgG1, lambda) heavy: not shown light: SYELTQPPSVSVSPGQTASITCSGDKLGDKYASWYQQKPGQSPVLVIYQDNRRPSGIPERFSGSNSGNTATLTISGTQAMDEADYYCQAWDSDTYVFGTGTKVTVLGQPKAAPSVTLFPPSSEELQANKATLVCLISDFYPGAVTVAWKADSSPVKAGVETTTPSKQSNNKYAASSYLSLTPEQWKSHRSYSCQVTHEGSTVEKTVAPTECS | Max. IL-12p70, dendritic cells with cell-surface mesothelin [3]: 60 pg/mL
7 | – | – | CF9 (bispecific antibody, human IgG1, lambda) heavy: not shown light: SYELTQPPSVSVSPGQTASITCSGDKLGDKYASWYQQKPGQSPVLVIYQDNRRPSGIPERFSGSNSGNTATLTISGTQAMDEADYYCQAWDSDTYVFGTGTKVTVLGQPKAAPSVTLFPPSSEELQANKATLVCLISDFYPGAVTVAWKADSSPVKAGVETTTPSKQSNNKYAASSYLSLTPEQWKSHRSYSCQVTHEGSTVEKTVAPTECS | Max. IL-12p70, dendritic cells with cell-surface mesothelin [3]: 120 pg/mL
8 | – | 0.69 | hu106-1 mIgG1 (antibody, V domains shown, also called hu106-1 with the muIgG1 constant region) VH: EVQLVQSGAEVKKPGSSVKVSCKASGYTFTSYYIYWVRQAPGQGLEWIGNIWPGNGGTFYGEKFMGRATFTADTSTSTAYMELSSLRSEDTAVYYCARRPDYSGDDYFDYWGQGTLVTVSS VL: NVMLTQPHSVSESPGKTVTISCKLNSGNIGSYYVHWYQQRPGSSPTTMIYRDDKRPDGVPDRFSGSIDSSSNSASLTISGLKTEDEADYYCHSYDSTITPVFGGGTKLTVL | –
9 | – | 0.95 | hu106-1 T252M mIgG1 (antibody, V domains shown, also called hu106-1 mIgG1 T252M) VH: EVQLVQSGAEVKKPGSSVKVSCKASGYTFTSYYIYWVRQAPGQGLEWIGNIWPGNGGTFYGEKFMGRATFTADTSTSTAYMELSSLRSEDTAVYYCARRPDYSGDDYFDYWGQGTLVTVSS VL: NVMLTQPHSVSESPGKTVTISCKLNSGNIGSYYVHWYQQRPGSSPTTMIYRDDKRPDGVPDRFSGSIDSSSNSASLTISGLKTEDEADYYCHSYDSTITPVFGGGTKLTVL | –
10 | 6.6 | – | TABBY3-mIgG2b (antibody, V domains shown, mouse IgG2b) VH: GVQLVESGGGLVQPGGSRKLSCAASGFTFSSFGMHWFRQAPEKGLEWVAYISSGSSTIYYADTLKGRFTISRDNPKNTLFLQMTSLRSEDTAMYYCARDWVDYWGQGTTLTVSS VL: DIVITQDELSNPVTSGESASISCRSSKSLLYKDGKTYLNWFLQRPGQSPQLLIYLMSTRASGVSDRFTGSGSGTDFTLEISRVKAEDVGVYYCQQPVEYPYTFGGGTKLEIK | –
11 | 2 | – | TABBY1.1-mIgG1 (antibody, V domains shown, mouse IgG1) VH: EVQLVESGGDLVKPGGSQKLSCAASGFTFSSYGMSWVRQTPDRRLEWVAAIISGGSYTYYPDSVKGRFTISRDNAKNTLYLQMNSLKSEDTAMYYCARHGGYDGNYDYYAMDYWGQGTSVTVSS VL: DVLMTQTPLSLPVSLGDQASISCRSSQSIVDSDGITYLEWYLQKPGQSPKLLIYKVSNRFSGVPDRFSGSGSGTDFTLRISRVEAEDLGLYYCFQVSHVPWTFGGGTKLEIK | –
12 | 3.1 | – | TABBY10-mIgG1 (antibody, V domains shown, mouse IgG1) VH: QIQLVQSGPELKKPGETVKISCKASGYTFTTYGMSWVKQAPGKGLKWMGWINTYSGVPTYADDFKGRFAFSLETSASTAYLQINNLKNEDTATYFCARGNDGNYYGWFAHWGQGTLVTVSA VL: DIQMTQSPSSLSASLGGKVTITCKASQDIHNYISWYQHKPGKGPRLVIHYTSTLQPGIPSRFSGSGSGRDYSFSISNLEPEDIATYYCLQYDNLYTFGGGTKLEIK | –
13 | – | – | hu107-1 (antibody, V domains shown, human IgG1 constant regions with L234A and L235A) VH: EVQLVQSGAEVKKPGSSVKVSCKASDYTFNDYWVSWVRQAPGQGLEWIGEIYPNSGATNFNGKFRGRATLTVDNSASTAYMELSSLRSEDTAVYYCTREYTRDWFAYWGQGTLVTVSS VL: DVVLTQSPLSLPVTLGQPASISCRSSQSLLDSDGNTYLYWFQQRPGQSPRRLIYLVSNLGSGVPDRFSGSGSGTDFTLKISRVEAEDVGVYYCMQPTHAPYTFGQGTKLEIK | Kd [4]: 0.16 nM; koff [4]: 6.5e-05 s⁻¹; kon [4]: 410000 M⁻¹ s⁻¹; Kd [5]: 5.2 nM; koff [5]: 0.0013 s⁻¹; kon [5]: 240000 M⁻¹ s⁻¹
